From US8404644B2, “Agents with angiogenic and wound healing activity” (Meat & Livestock Australia Limited, priority 2007, dated 2013)

What was measured:
elastase I [1] = target: T1, elastase I (Sus scrofa, UniProt P00772); assay: Elastase I inhibitory activity of crystallin fractions; assay type: biochemical
T1 construct: purchased Worthington Biochemical Corporation 2280
Experimental: The bovine crystallin fractions were tested for ability to inhibit elastase I activity.

[2] = Stability to heat treatment; assay type: physicochemical
Experimental: (§1) The second study investigated the angiogenic potential of purified crystallin proteins. Briefly, βB3 crystallin was prepared by heating (97-99° C. for 3 minutes, supernatant collected by centrifugation) and was essentially homogenous. Alpha A crystallin and αB crystallin samples were prepared by ion exchange chromatography as described above and were also essentially homogenous. The Wound Heal 1-3 preparations were also tested in this study.

rat aortic ring = assay: Rat aortic ring angiogenesis assay (Example 4.3); assay type: cell-based, Lewis rat; conditions: second study, 200 μg/mL
Experimental: Four separate studies were carried out to determine the angiogenic effect of crystallin preparations. Each sample was assayed in triplicate. A positive control (VEGF) and a vehicle control containing PBS was also run in triplicate. […] Preliminary statistical significance was assessed with an independent Student t-test at α<0.05. Graphical representation of averages +/− standard errors were determined.
The first study investigated the angiogenic potential of bovine fractions prepared by gel filtration analysis as described in Example 3.2. As described in that Example, the alpha fraction contained αA and αB crystallin, the β H fraction contained all β crystallins, the β L1 fractions contained a sub-fraction of beta crystallins and a high content of βB2 crystallin and beta B3 crystallin and the beta L2 fraction contained only βB2 crystallin and βA3 crystallin.
as §1
The third study investigated the angiogenic potential of ovine crystallin proteins compared to their bovine equivalents. Both bovine and ovine crystallin proteins were purified essentially to homogeneity by RP. HPLC using a C4 column, as described below in Example 5. Homogeneity was confirmed by SDS-PAGE. The effect of elastase I treatment of βB2 crystallin was also investigated by comparing the angiogenic potential of intact βB2 crystallin (i.e. undigested) with elastase I digested βB2 crystallin. Elastase I treatment releases the N-terminal and C-terminal extensions of the crystallin protein leaving a globular protein that is monomeric.
In the final study, ovine βB2 crystallin was tested alone or in combination with indoleamine 2,3-dioxygenase (IDO) and ovine alpha B crystallin was tested alone or in combination with tryptophan dioxygenase (TDO)
Briefly, in each study, a single Lewis rat was euthanised and its aorta transferred to a 15 mL Falcon tube containing 10 mL of MCBD-131 medium and stored on ice. After transferring the aorta to a 92×17 mm petri dish containing 10 mL of ice cold MCDB-131, the outer fatty tissue was removed under an Olympus SZ-60 Dissecting microscope. This was undertaken with fibre optic lamp illumination. The aorta was then cut into sequential rings approximately 2 mm in size. Connective tissue was removed with micro scissors and forceps from the outside of the individual rings. Clean rings were stored in a separate petri dish in sterile MCDB-131 medium. Rings were pre-incubated overnight at 37° C. in an atmosphere of 97% air/3% CO2.
To prepare gel sandwiches, 75 mg of fibrinogen was added to 25 mL MCDB-131 medium and shaken gently on a rocker roller for 5 minutes. 3 ml of MCDB-131/fibrinogen solution was added to a 15 mL Falcon tube, followed by 10 μL of thrombin and quickly mixed. A 0.4 mL volume of this fibrinogen-thrombin solution was added to each well on a 24 well plate, 6 wells at a time. Aortic rings were then placed on the setting gel, pushed gently into the gel and left for 45 minutes. These steps were then repeated so each ring was covered with 0.4 mL of gel. Gels were left to set at room temperature. […] The plate was then placed in incubator (37° C., 97% air/3% CO2).
Culture plate were examined daily for signs of infection (fungal growth or yellowing of media) in the wells using an inverted microscope. The growth of microvessels from their perimeters was also observed. Digital photographs of each well were taken seven days after plating using a Pixera PVC-100C digital camera mounted on an OLYMPUS CK-12 microscope and stored on a Macintosh Computer. […]

[3] = test system: full thickness 12 mm wound; assay: Wound healing assay (Example 3.6); assay type: in vivo, male Lewis rats; conditions: for Wound areas: mg/wound: Wound heal 1 0.01, Wound heal 2 0.1, Wound heal 3 1.0, Aloe vera 20; for wounds larger than wounds on rats receiving buffered saline only: 1.0 mg/wound
Experimental: Thirty male Lewis rats were divided into 5 groups of 6 rats as outlined below in Table 7. Rats were age and weight matched. Rats were permitted rodent diet and water ad libitum throughout the study.
The animals were weighed two days before the start of the trial and weights grouped from lightest to heaviest. Animals were then randomly assigned to groups based on body weights, using 5×5 Latin squares so that group means were as similar as possible.
Approximately 30 minutes before wounding, each animal was given a subcutaneous injection of Temgesic at the base of the neck (0.075 mg/kg body weight). Each animal was anaesthetised using 3% halothane in oxygen. Once the pedal reflexes had been abolished, the animals were shaved from the base of the skull to the hind limb area using electric clippers. The skin on each rat was disinfected using 0.5% chlorhexidine in 70% ethanol. For each animal, the distance from the base of the skull to the top of the hip joint was measured and the wound position marked with a black felt tip pen, 6 cm below the base of the skull along the spinal axis.
Using asceptic techniques a full thickness incision was made at this position using a sterile 12 mm biopsy punch. Any bleeding was removed using cotton swabs. Care was taken that the punch was dry and that no debris (eg., skin, hair) entered the wounds. […] After photography of each wound using a Canon Digital EOS 20D camera with a F2.8 Macro lens, an aliquot of the sample was applied to the wounds on the rats in Groups A, B, D and E using a Gilson Microman CP 100 positive displacement pipette. The biopsy punch was wiped inside with a swab soaked in sterile saline to remove any tissue fluids and/or debris. The punch was then immersed in 70% ethanol before use on the next animal.
For applications and photographs after day 1 the animals were restrained without being anaesthetised.
(§2) Body weights were measured on days 1, 3, 5, 7, 9, 11, 13, 15, 17, 19, 21 and 23 and deviations from original body weights (on day 1) calculated for each animal. On the same days, photographs were taken using a Canon Digital Eos 20D with a F2.8 Macro lens. Photographs were downloaded and wound areas measured using NIH Image J 1.633u software (National Institutes of Health (NIH), Rockville Pike, Bethesda, Md., United States). A laser speckle image was also taken at the same time as each space photograph was taken. Animals were weighed every second day when the photographic record of wound closure rate was also made.
The redness and swelling of each wound were individually scored from visual observation. These were scored on a scale of 0-3 as follows:
Descriptive statistics were evaluated. […] Major analyses were performed on all data points collected. Preliminary analyses were undertaken on control wounds only using t-tests. Univariate ANOVAs were used to assess differences between treatment and controls and samples nested within treatments. A separate ANOVA assessed whether there was a dose response using the treatment samples only. Assumptions for normality were tested using q-q plots on studentized residuals and heterogeneity of variances were tested using Levene's tests. SPSS 11 for Mac OSX was used for assumption testing and statistical analysis.

[4] = Body weight during wound healing assay (Example 3.6); assay type: in vivo, male Lewis rats; conditions: PBS control returned by day 11
Experimental: as §2

elastase I [5] = target: T1, elastase I; assay: Chaperone activity: protection of elastase I from heat denaturation; assay type: biochemical; conditions: boiling water bath for 30 seconds
Experimental: Bovine crystallin fractions were tested for ability to protect the proteases elastase I, trypsin and chymotrypsin from heat denaturation. Briefly, the proteases were heated in a boiling water bath for 30 seconds in the presence or absence of the crystallin fractions.

T1 sequence (P00772 27-266): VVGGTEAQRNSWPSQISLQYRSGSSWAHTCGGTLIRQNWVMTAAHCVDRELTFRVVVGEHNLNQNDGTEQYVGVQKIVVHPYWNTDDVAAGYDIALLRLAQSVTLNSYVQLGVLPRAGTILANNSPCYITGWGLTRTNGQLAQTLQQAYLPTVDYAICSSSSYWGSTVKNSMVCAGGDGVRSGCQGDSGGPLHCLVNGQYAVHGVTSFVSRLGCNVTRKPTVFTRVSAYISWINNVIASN

B1: Gamma S crystallin: gamma S gel filtration fraction of bovine crystallin extract (protein)
chain: SKAGTKITFFEDKNFQGRHYDSDCDCADFHMYLSRCNSIRVEGGTWAVYERPNFAGYMYILPRGEYPEYQHWMGLNDRLSSCRAVHLSSGGQYKLQIFEKGDFNGQMHETTEDCPSIMEQFHMREVHSCKVLEGAWIFYELPNYRGRQYLLDKKEYRKPVDWGAASPAVQSFRRIVE
With B1 the “elastase I inhibitory activity (in words)” value (elastase I [1]) was “considerable elastase inhibitory activity”.

B2: βB2 crystallin: bovine βB2 crystallin protein (SEQ ID No. 1); in b236 the value is that of Wound Heal 2 (protein)
chain: ASDHQTQAGKPQPLNPKIIIFEQENFQGHSHELNGPCPNLKETGVEKAGSVLVQAGPWVGYEQANCKGEQFVFEKGEYPRWDSWTSSRRTDSLSSLRPIKVDSQEHKITLYENPNFTGKKMEVIDDDVPSFHAHGYQEKVSSVRVQSGTWVGYQYPGYRGLQYLLEKGDYKDSGDFGAPQPQVQSVRRIRDMQWHQRGAFHPSS
modifications: bovine
With B2 the “stability to heat treatment (in words)” value [2] was “unstable to heat treatment” and the “increase in microvessel growth (stimulatory)” value (rat aortic ring) was 21.83%.

B3: Wound Heal 3: bovine αB crystallin, DEAE Sepharose fast flow fractions 37-47; Group D of Example 3 (protein)
chain: MDIAIHHPWIRRPFFPFHSPSRLFDQFFGEHLLESDLFPASTSLSPFYLRPPSFLRAPSWIDTGLSEMRLEKDRFSVNLDVKHFSPEELKVKVLGDVIEVHGKHEERQDEHGFISREFHRKYRIPADVDPLAITSSLSSDGVLTVNGPRKQASGPERTIPITREEKPAVTAAPKK
B3 gave a Wound areas ([3]; Day 1 (=100)) of 100, a Wound areas ([3]; Day 3) of 93 and a Wound areas ([3]; Day 5) of 82. For the same molecule, the Wound areas ([3]; Day 7) was 76, the Wound areas ([3]; Day 9) was 58 and the Wound areas ([3]; Day 11) was 34. For the same molecule, the Wound areas ([3]; Day 13) was 23, the Wound areas ([3]; Day 15) was 15 and the Wound areas ([3]; Day 17) was 9. The Wound areas ([3]; Day 19) was 5, the Wound areas ([3]; Day 21) was 2.5 and the Wound areas ([3]; Day 23) was 1.4. For the same molecule, the “wounds larger than wounds on rats receiving buffered saline only” value (shortened to “wounds larger than wounds”) ([3]; day 3) was 8.8%, the “wounds larger than wounds” value ([3]; day 7) was 7.7% and the “wounds larger than wounds” value ([3]; day 11) was 28.7%. For the same molecule, the “healing rate compared to Control group (PBS), in words” value ([3]; rat, in vivo) was “inhibited the rate of healing”, the “day by which mean body weight had returned to the starting (pre-wounding) weight” value [4] was at most 12 days and the “chaperone activity: protection of elastase I from heat denaturation (in words)” value (elastase I [5]) was “Chaperone activity was observed”. The “% of Control” value (rat aortic ring; microvessel growth) was 93.09%.
